Assay results reported in patent US20260232759A1 (WISCONSIN ALUMNI RESEARCH FOUNDATION, published 2026).
No end group written: not given here. PEG‑cholesterol = not defined here

B1: D1 Q4 D32 E35 (peptide)
peptide: DISQINASVVNIEYEIKKLEEVAKKLEESLIDLQELGSGSGC(PEG‑cholesterol)
modifications: not fully specified (C-terminus); reading uncertain; also: β2- or β3-amino acids, presumably D1, Q4, D32, E35
B2: D1 Q4 D32 Q34 (peptide)
peptide: DISQINASVVNIEYEIKKLEEVAKKLEESLIDLQELGSGSGC(PEG‑cholesterol)
modifications: not fully specified (C-terminus); reading uncertain; also: β2- or β3-amino acids, presumably D1, Q4, D32, Q34

Target: SARS-CoV-2 Spike protein (SARS-CoV-2, UniProt P0DTC2 14-1273)
Experiment: cell-based or functional assay

| Binder | inhibition of S-mediated cell-cell fusion (β-Gal complementation), IC50 [nM] |
| --- | --- |
| B1 | ~50 |
| B2 | ~10 |
